The values below come from the DeepSol protein solubility set.

The nature of the data set: soluble on expression in E. coli; label from the status in PepcDB or PDB records.
For “MSLDRYLGFANSNLGRRLVDALGLPRPAPLERWQAGRLRPVEGALVLGGGPLAKQVEAIAPRLTDEVYSFNADNLQAEAWVAGLGPKIKAVVFDASHLSDSDALKQLREFFQPLLRSLAPCAHVLVLGRAPEGLDDPLASVAQRALEGFSRSLAKELRNGATAQLLYVAPGAEDQLEGALRFFLSPKSAFISGQVLRLQGCTSQVEDWTRPLGGRRALVTGAARGIGAAIAETLARDGADVLLLDVPQASKDLDALAARLGGKALPLDICASDAATQLLAALPDGIDIVVHNAGITRDKTLVNMTPEYWDAVLAVNLKAPQVLTQALYDNGALGENARITLLASVSGIAGNRGQANYAASKAGLIGLAQAWAPRLAERGGSINAIAPGFIETHMTAAMPMGLREAGRRLSSLGQGGSPQDVAEAIAWLSQPGSGSVNGQVLRVCGQALMGAEGHHHHHH”, the “soluble on expression in E. coli” value is listed as “soluble”.

As to “MGSDKIHHHHHHMTEKKTMLEKLKKLMHHFTLSLDDISVETSRARQLSIRTEIDRLRSNERYKEPKSLIPFGGKIYSQNDEDGIIREIFNRIGTTNKVFVEFGIGNGLENNTLALLFEDWQGLWIDASSDSITSIRNHFSEIIGSGKLAVVESFITKANIDNLIATNVKHREIDLLSVDIDGNDYHVLQAISCITPRVIVIEYNAKFAPPVLFCMDYTETHMWTGDDCFGASLKFLETNLNKMGYCLVGCNLTGANAFFIRRELVTNKFLEPFTAENHFEPARYYLSGYASGHTPTYETLARSLTMRVS”, the “soluble on expression in E. coli” value is “not soluble”.

Take “MAHHHHHHMQYINDEGYRIDGRKNDECRLIKISLGNGNELIDVDGFSFFEIGNTKLFAYIQGPNEYRRPDEKCLVKCNVFLSPFNILEKKRKKSKDNVTREISSYIRNICNHIILLDLYKNSEINIFLYIIERDGGLKAAAVNTCILALIDAGIAIKYFISASSVLYLQNNIIVDGNQFEVNSGSPELTLAIDMSSNNIVLLEFDAEVPIDIFQSMLKTCAQACIHVGNIMKLSIKENAIKLLSLNSILNT”: the “soluble on expression in E. coli” value is recorded as “not soluble”.

With “MGSDKIHHHHHHMLNTIGERQKQLLKLLRGSRPGLSVDELSKGLEITRNAVRQHLSSLEGAGLVTAGNTRPSGGGRPQQLYVLTELGKESFPRQYSWLAQLVLASVRREEGVENMGKRLSEIGAGIAEQIRGQYPDLNTKEEKIDKLTEVMDQLGYNAKSATLPNGEKVIEADNCVFHQMAAKDMEICHLDRGLMETFTDSKVEQHECMARGGELCRFRFVSKKE”, the “soluble on expression in E. coli” value was “not soluble”.

Take “MEKPIIRGYIRENGSVGVRNYVAVIPVDDLSNSASIGVSKLIRGTVAIPHPYGRLQFGKDLDLLFHVLSGTGANPNVAAAIVIGIEENWANKVADKIAETGKPVEVFPVEGNGDLKVIEKASRKAKEFVQEASEKQRTEVDLSSLVLSIKCGESDTTSGLASNPATGYAVDKLIDYGSTVMFGETSELTGAEDIVASRIQDPVLRDKFMRIYNEYVAFIESQGVDLLGSQPTEGNIKGGLSTIEEKALGNIQKLGTKPITCVLDYLDPLGKGSSRLCFVNTSSAAAEAVTLFAAKGSVLHLFTTGQGNVVGHPIIPVVKISANPKTIATMSEHIDVDVSDLLQLKVSLKEAGERIFNYTIRVANGRLTSAEILQHEEFSPIKLYISA”: the “soluble on expression in E. coli” value was “not soluble”.

As to “MSLKILIGEFAVGTDIEKSLIPEGAAMLKTLAESFVRVGHEVCYPSAGTEIGSGTALKSTADSFVQVIEREAKNCDAGLLIAPDGMLPELNRILAENTANLGCSPEAAARCADKLRCTEILKTAGINAPEIVREAEEGKKYVIKPRFGCGAEATYLVSGFENTGEFIASEYIEGEHLSVSLIAGNKPLPLTVNRQFIEFNEKKDGINPENIEVSGIKYNGSLTPYETPRRGELYETAVSAVKYLGCFGYVGVDIVLSEVPYVVDVNPRPTASIFGISRVMREEIGELLLTNRFGTLPDSVRVEGEYHFSKDMLGELFGKNEGHHHHHH”, the “soluble on expression in E. coli” value is “soluble”.

Take “MGHHHHHHSHNLGPRLTPLLQEEDSHQRLLMGLMVSELKDHFLRHLQGVEKKKIEQMVLDYISKLLDLICHIVETNWRKHNLHSWVLHFNSRGSAAEFAVFHIMTRILEATNSLFLPLPPGFHTLHTILGVQCLPLHNLLHCIDSGVLLLTETAVIRLMKDLDNTEKNEKLKFSIIVRLPPLIGQKICRLWDHPMSSNIISRNHVTRLLQNYKKQPRNSMINKSSFSVEFLPLNYFIEILTDIESSNQALYPFEGHDNVDAEFVEEAALKHTAMLLGL”: the “soluble on expression in E. coli” value was “not soluble”.

Consider “MSLAKIVFCILDGLGDTTHTLPDGRKGTCLEMAKRPTLDAIAKAGTVGLNDSVSPGYPCGSDTAHLSLFGYPPFTYYNGRGAFEALGGGMDMEPGSIAFKSNFSTMYGECVKYRRCDRHFEVEGPILCKDLDGIKIPEFPEVKVSVVYATEHRCAVKILAPGLSDKIAGTDPIHDDLDLIKSYPLDDSPEAAYTAKVVNALSDTFRKALENHPINIERRKQGKEVANVILLRGPGMRLSCQPFGERHNIKAFLIAPTAIIAGLGISVGLPVIKVKGATGDMDSNFNAKAIAAAQELDGDKYDMGIIHMKGIDDAAHDGKIAVKTELIERADKAIHLLIEKLAELEEKNGDRFIVAVTADHSTSCTWKDHCFEPVPFIVAEVAKVAQELGIKHVDQSKKPELVPTDSVHEFTETAACKGSLGRFCGAQMMNLLFHFAGRKQEEGHHHHHH”, for which the “soluble on expression in E. coli” value is “soluble”.

Consider “MEAAANRQLIVSFTPYEWKYVRQLFRSRRIEDVKECVIILATWISRTGENTPVAISCSHVLLQAIYAELLSTGMCESERYMAIDDLRSKHGYAIVRFVNYVNEMGQTGATLKNMVHAVKSFGIPKKIVDIRHAITHQNCPDIAELRYATNFCLDWLWKNFWLSDARVAMNSAAATNSSKNPTSSSEFGGQRGREQQYVSSLRAFNTWRVKNRQLTTELEWSEVAELLALKHHILLDSTGFLTCFMRDGHLIQTPGQWKNWKLPVTCSNDNWQIPEEIQAFWEPLFHVMFSLKLGAEIVVAFLWRLREPMIKDMTRHQITAYVRMIVQQFADADVFSDEEWYKVLDHLLPVAKNFSTEFIELVMARCTTLAHKRKKQIRQILNISTKSHVESPSTSSSDTVHTVSDLQKLLKKSSKSVVKSEPVTSNADGNRTGIELCDVAAWAEVPFGMAPGQRIETFTVVLDHHGSDKSRKRRAFDAAITLDED”, for which the “soluble on expression in E. coli” value is recorded as “not soluble”.

Consider “MKITKISLFQKVLPYCSGSLAIGDLSENRTKPFDTFTSSVVVINTDQGVSGVGESCPWVSDNLNEKEVYDCLASRLLGEDPHNLKGIVKNMDAVIQGHTFAKSAIDMACWDIKAKDNGVPLFELLGGMLTDGAPLYRCVMEQEHDKIKAEVEQYRASGYKYFKLRVGIEPDKDIELIKFAANLAEPGEIVYADANCRWTLSEALEVVKAIEGLDVMIEQPCLSYEDCIKVRENTGLLIKLDELVTDLTMAKKIVRDHTADVVCIKMSRVGGLSKALEIRDFFVKKGIKVVTECMMGGEIVSAAVSHFSASTPSEFLFNTGDLHAYVTASTGNISPPTLNGRIYCNDSPGLGVEPDLTSLGTPIAIYQN”, for which the “soluble on expression in E. coli” value was “soluble”.

Turning to “MMRVAIFTDTFTPQVNGVAKTLERLTQYFQKEQIAYSVFAPQHTAEDNFVANVNKMRSIPLTILYPECRFSFPTPRIKRELLSFKPDIIHIATPFNMGLCGLYYAKKLNIPVVGSYHTDFDAYLRYYKIEFLSNMLWNYLKWFHSHMQKNFVPSFETLHQLKNKGFQTLSIWGRGVDCTLFHPAYNTDLFRKKYNITAKYVLSYVGRIAPEKDIDTLQHLIVKTAHTRNDIHWLIAGDGPLATSLREAVPKTNITFTGYLQGGDLAEAYACSNIMVFPSATETFGNVVLESLACGTPVIGANSGGVKNIITDGKTGVLCPPKNEDAFLSSIYFLLQNEEKLEQMGIESSSFAKSKSWDEVFRGLLNQYEEVLQHNASELLALEHHHHHH”, the “soluble on expression in E. coli” value is listed as “soluble”.

“SRILVSIGESFGTSEKFQKINQMVCNSDRVLKRSAEGSNPPKPLKK”: the “soluble on expression in E. coli” value is given as “soluble”.

As to “MGSDKIHHHHHHQEAKGSADETKVEVQYLDPRDPFEGFNRAMWDFNYLYLDKYILKPVAHGYNDYLPLPVKDGVHNFTTNFDEPSSLVNNILQGKWSWAANAGGRFTVNTSLGILGIFDVAQMMGMERKQDDFSEVLGFYGVPNGPYFMAPFFGPFVTREIASDWVDGLYFPLSELTMWQSALKWGMKSLHNRAEAIDRERLLDNALDPYAFVKDAYFQHVDYKVYDGNVPTTQEDDELLDEFMEELE”, the “soluble on expression in E. coli” value is on record as “not soluble”.
